Test: label from the status in PepcDB records

| Sequence | protein production |
| --- | --- |
| MFLGEDYLLTNRAAVRLFNEVKDLPIVDPHNHLDAKDIVENKPWNDIWEVEGATDHYVWELMRRCGVSEEYITGSRSNKEKWLALAKVFPRFVGNPTYEWIHLDLWRRFNIKKVISEETAEEIWEETKKKLPEMTPQKLLRDMKVEILCTTDDPVSTLEHHRKAKEAVEGVTILPTWRPDRAMNVDKEGWREYVEKMGERYGEDTSTLDGFLNALWKSHEHFKEHGCVASDHALLEPSVYYVDENRARAVHEKAFSGEKLTQDEINDYKAFMMVQFGKMNQETNWVTQLHIGALRDYRDSLFKTLGPDSGGDISTNFLRIAEGLRYFLNEFDGKLKIVLYVLDPTHLPTISTIARAFPNVYVGAPWWFNDSPFGMEMHLKYLASVDLLYNLAGMVTDSRKLLSFGSRTEMFRRVLSNVVGEMVEKGQIPIKEARELVKHVSYDGPKALFFG | not failed |
| MFLHSVNLWNLAFYVFMVFLATLGLWDVFFGFEENKCSMSYMFEYPEYQKIELPKKLAKRYPAYELYLYGEGSYAEEHKILPLTGIPVLFLPGNAGSYKQVRSIGSIALRKAEDIDFKYHFDFFSVNFNEELVALYGGSLQKQTKFVHECIKTILKLYKGQEFAPKSVAIIGHSMGGLVARALLTLKNFKHDLINLLITQATPHVAPVMPLDRFITDFYTTVNNYWILNARHINLTTLSVAGGFRDYQVRSGLTFLPKLSHHTSALSVVSSAVPKTWVSTDHLSIVWCKQLQLTTVRAFFDLIDADTKQITQNSKKKLSVLYHHFIRHPSKHFEENPAIISDLTGTSMWVLVKVSKWTYVAYNESEKIYFTFPLENHRKIYTHVYCQSTMLDTNSWIFACINSTSMCLQGVDLSWKAELLPTIKYLTLRLQDYPSLSHLVVYVPSVRGSKFVVDCEFFKKEKRYIQLPVTHLFSFGLSSRKVVLNTNGLYYNLELLNFGQIYQAFKINVVSKCSAVKEEITSIYRLHIPWSYEDSLTIAQAPSSTEISLKLHIAQPENNTHVALFKMYTSSDCRYEVTVKTSFSQILGQVVRFHGGALPAYVVSNILLAYRGQLYSLFSTGCCLEYATMLDKEAKPYKVDPFVIIIKFLLGYKWFKELWDVLLLPELDAVILTCQSMCFPLISLILFLFGTCTAYWSGLLSSASVRLLSSLWLALKRPSELPKDIKMISPDLPFLTIVLIIVSWTTCGALAILLSYLYYVFKVVHLQASLTTFKNSQPVNPKHSRRSEKKSNHHKDSSIHHLRLSANDAEDSLRMHSTVINLLTWIVLLSMPSLIYWLKNLRYYFKLNPDPCKPLAFILIPTMAILGNTYTVSIKSSKLLKTTSQFPLPLAVGVIAFGSAHLYRLPCFVFIPLLLHALCNFM | failed |
| MFLSVVTVAFRNYEGVVKTWRSLRNLARDPGLSFEWIVVDGGSEDGTREFLRKRHGEFNLRFISEKDRGIYDAMNKGIALAQGRYTLFLNSGDAFHDDAALFVRQLARQKGEAMYIGDALLDFGGGHKIRRKAKPGYYIYHSLPASHQAIFFPTAALKKYPYDLQYHVSSDYALAARLYKAGYPFRRINGLVSEFSMGGVSTSNNLELCQDAKNVQRKILRVPGFWAQLSYLLRLKTTGKTKARYNKVLEHHHHHH | not failed |
| MFLVCGEALFDIFTRADDGGSLNRLGFDAIAGGSPFNVAIGLRRLGVEAAFFAGLSTDYLGRRLRAVLEQETVNAEHLIEFDAPTTLAMVAVGSDGSPTYSFRGDGCADRQLRLEHLPELDERVRGIHVGSFSLVVQPIADTLLALVARESARRLISLDPNVRLNPAPDIQRWRTQIAAFAEHAHLIKVSDEDLHLLYPDSDPQQIAEGWLGKRTQLVIVTRGTQGASVFTRQHGTWSVPAKTVVTADTVGAGDTFQAALLTFLSERQLDTPQGLSTLSRETLDEMLNFAVGAAALTCTKVGPDLPYRHQLG | failed |
| MFLVISVVGSSNIDIVLKVDHFTKPGETQKAIEMNVFPGGKGANQAVTVAKIGEKGCRFVTCIGNDDYSDLLIENYEKLGITGYIRVSLPTGRAFIEVDKTGQNRIIIFPGANAELKKELIDWNTLSESDILLLQNEIPFETTLECAKRFNGIVIFDPAPAQGINEEIFQYLDYLTPNEKEIEALSKDFFGEFLTVEKAAEKFLELGVKNVIVKLGDKGVLLVNKNEKKHFPTFKVKAVDTTAAGDVFNGAFAVALSEGKNPEEAVIFGTAAAAISVTRLGAQSSIPAREEVEAFLKNL | not failed |
| MFLVLCSVMIFIGFLLQIYVWPRIPKSIFKYRGLVLSISLIILIFVVRIPLEITALTLPFYLMMFFGLFLFWKDRKL | failed |
| MFLVTGVFVSVRHERTGTGTTARESVQRITWFGTLRDDGVALVMPLSDRMLPTGIIREVPEERFLEEFMPDQATYEEHFRETAESLRGRLQLASTLPTDLYPEERILLDALSALLHGRSAAKPVDADIPAVLELLAHGQEGRSAGAFQTRLSGAAVDYRRQGDYPRALLFYDRALTMQGQEDRLLFNVARVHYEMGELAEAETCLKRALESNPALEEAGRFLAFLQKTTLQPQAGDE | failed |
| MFMAENRLQLQKGSAEETIERFYNRQGIETIEGFQQMFVTKTLNTEDTDEVKILTIWESEDSFNNWLNSDVFKEAHKNVRLKSDDDGQQSPILSNKVFKYDIGYHYQK | not failed |
| MFNAYREYWNNITTMNASATRAQYWWPQLINYLVLGIYSAITGVYRYIEVTPNDGTIIKEWNTVTIIFFLLTALIWLANFTVRARRLHDRDHSNWWILFYLLPFIGTLVIFITLILPSKSHTRWPVNQSEI | failed |
| MFNKRLKQQLATLSDELNALQQFKACLESQVLNLELDGEGAIRRANQNFIQALELDGQPLAGVALESIISRHPQAVPLYREFKAALGRNESYTGQLRLQRGGGREAWLQVCVQPIRDGAGRLDHYNLICTDQS | failed |
| MFPAQEEADRTVFVGNLEARVREEILYELFLQAGPLTKVTICKDREGKPKSFGFVCFKHPESVSYAIALLNGIRLYGRPINVQYRFGSSRSSEPANQSFESCVKINSHNYRNEEMLVGRSSFPMQYFPINNTSLPQEYFLFQKMQWHVYNPVLQLPYYEMTAPLPNSASVSSSLNHVPDLEAGPSSYKWTHQQPSDSDLYQMTAPLPNSASVSSSLNHVPDLEAGPSSYKWTHQQPSDSDLYQMNKRKRQKQTSDSDSSTDNNRGNECSQKFRKSKKKKRY | not failed |
| MFPFTHVHAFNKGNEEVYMDVENGKNGEGSVFRMPLHYPRYSKEDYQDMPEWKLDRVLADYGLSTYGDLAHKRDFAIGAFLWISTRNPKLYQEKSINSKLKKDTKSAHA | failed |
| MFPSFITHIQSPNSHHHYSSPSFPFSSDFLESFDESFLINQFLLQQQDVAANVVESPWKFCKKLELKKKNEKCVDGSTSQEVQWRRTVKKRDRHSKICTAQGPRDRRMRLSLQIARKFFDLQDMLGFDKASKTIEWLFSKSKTSIKQLKERVAASEGGGKDEHLQVDEKEKDETLKLRVSKRRTKTMESSFKTKESRERARKRARERTMAKMKMRLFETSETISDPHQETREIKITNGVQLLEKENKEQEWSNTNDVHMVEYQMDSVSIIEKFLGLTSDSSSSSIFGDSEECYTSLSSVRGTISAAGNSNVLTKNPN | failed |
| MFREFINLLFMQFKMIKAYLPVFIFFSILFPLGFIFSFGTIIQRTLSTYLISGSITFFISINSIISVAQNLALERSSGRFSLMIASGIPIQLYAISITISNGIQTLMLIPVFLVLGYFLLGVRISSALFFVLSIIGSIYMASMVGLLIGTAIRNLHAVNQWSSIIGFILSFFAPVYFPLTQIPLPFRYLAYLEPTTYVSQSTYFALVGNPISLAWFGGTVVIGFLFSFLSSLLMKKAF | failed |
| MFRRPRLRALSALVLAALTLPAVAQQVLIRGATVHTATSQGTLRNTDVLVQGGVIRAIGTGLAVPTHGRVVEAKGRPLTPALFGGITEIGIEEVSGEAATVDSGVKLTEQPMRPEFDVTLAYNPDSVLIPVARVEGIGFTALGATTSGAFIAGQGGIVRLDGGPDPVGPHALFVRLGAAASDLTGSSRAAQWMLLDQLVAEARGRVPADSPHALLTPVGRSVLANYLAGRGRIVVQVERAADIRQLLRWAQREKVRIAIAGGTEAWKLAPQLAQAKVPVLVDALADLPSTFDQIGATLENAARLRAAGVEVSFTQSGDASHNARKLRQLAGNAVANGLPWESGLAGLTRVPAEIFGVGDRIGSIAVGKQADLVLWDGDPLDVAHYAEQVWMGGRDMPMRSRQTDLRDRYLQQAGPLPRAYQR | failed |
| MFRSFPVDSPHVYLRWVAISISQPVIRHGSSVVFVGGTPASSFLWPLCINRQNQIQTHFLKSFRIQEFLPRKSQCSRVTTIKETIFYPICLKSSKQIIVNATTFQCINYLLPIQFAYRNEPFRKFFATRIDFSSNQIERTNHSNRI | failed |
| MFRSKSCREETRSSSITNKYHCFSHGEKSESEPTNQQPPVMMRSYSTSTYNAYQNPTIVRDDSNNKSKRSNKVKKKGFKGLCEAEIQRKKRVASYNVYGVEGRVKGSMKKSFKWFKETCSNAVYGLW | failed |
| MFSAKKLSPADKLKNISSMLEEIVEDTTVPRNIRAAADNAKNALHNEEQELIVRSATAIQYLDDISEDPNMPIHTRTQIWGIVSELETIKN | not failed |
| MFSIIWMLFTPLLLLCGIAGGIFLIVTGIKYRKLLVGLMGLLSLSFVTLPFVLLSVGIHIDTIFPIPTALYWTLFSLTGLLAGVSGVQAKIKSIRNMGFIIFTIGILGVIFWELMSVGDSFYI | failed |
| MFSILLPTWNNLALLKLCVQSIRAHSAHDHQIIVHVNDGSDGTLAWVREQGLDHTHSPGNVGICLAVNESAMLARHDYIVYLNDDMVCCPGWDTALLRRLDTLDTDLFMLSGTMIEPVDTGNPCVVVGNYGRDADTFDAARLLADVPRLARGDWLGATWPPTLVHRRWWFKLGGYSSELTPGMSSDNDFSMKLWHAGCRIFLGAGDSLVYHFQCKSTGKVKKNDGRRQFLNKWGLSQSTFDKYFLRRGTPAGADWRLPEPELTSALRWDLRRNDLTRRLRPGVPVLLEHHHHHH | not failed |
| MFSIQQPLLVFSDLDGTLLDSHSYDWQPAAPWLTRLREANVPVILCSSKTSAEMLYLQKTLGLQGLPLIAENGAVIQLAEQWQEIDGFPRIISGISHGEISLVLNTLREKEHFKFTTFDDVDDATIAEWTGLSRSQAALTQLHEASVTLIWRDSDERMAQFTARLNELGLQFMQGARFWHVLDASAGKDQAANWIIATYQQLSGKRPTTLGLGDGPNDAPLLEVMDYAVIVKGLNREGVHLHDEDPARVWRTQREGPEGWREGLDHFFSAR | not failed |
| MFSRVPQPLAFAEALLAQFGALSRETDITALLGGFARAVGELSGCELSQLYLLDQTHTALTLNAECRDGLLQALEPSSLPADYTGEQLLQFALCQNRVVSLVDLPSRLHETGFLPAGEQPWLSLLCVPLVSPEKTVEGMVVCATRRPLDLQGFAHPLGQLGSFVLAQLHLLQRLSQPSGE | not failed |
| MFSVNNTHSSVSCSPSINSNSTSNEHYLRILTEWEKNSSPGEERGIAFNRLSQCFQNQEAVLNLSDLNLTSLPELPKHISALIVENNKLTSLPKLPAFLKELNADNNRLSVIPELPESLTTLSVRSNQLENLPVLPNHLTSLFVENNRLYNLPALPEKLKFLHVYYNRLTTLPDLPDKLEILCAQRNNLVTFPQFSDRNNIRQKEYYFHFNQITTLPESFSQLDSSYRINISGNPLSTRVLQSLQRLTSSPDYHGPQIYFSMSDGQQNTLHRPLADAVTAWFPENKQSDVSQIWHAFEHEEHANTFSAFLDRLSDTVSARNTSGFREQVAAWLEKLSASAELRQQSFAVAADATESCEDRVALTWNNLRKTLLVHQASEGLFDNDTGALLSLGREMFRLEILEDIARDKVRTLHFVDEIEVYLAFQTMLAEKLQLSTAVKEMRFYGVSGVTANDLRTAEAMVRSREENEFTDWFSLWGPWHAVLKRTEADRWAQAEEQKYEMLENEYSQRVADRLKASGLSGDADAEREAGAQVMRETEQQIYRQLTDEVLALRLSENGSRLHHS | not failed |
| MFTGFNWQQMISAFIVLFAVIDIIGSIPIIINLKEKGKDVNATKATVISFALLIGFFYAGDMMLKLFHVDIESFAVAGAFVIFLMSLEMILDIEIFKNQGPIKEATLVPLVFPLLAGAGAFTTLLSLRAEYASVNIIIALILNMLWVYFVVSMTGRVERFLGKGGIYIIRKFFGIILLAISVRLFTANITLLIEALHKS | failed |

From a protein production outcome set (Wang et al. 2014)
